Target: Ror2-mCherry (xRor2-mCherry in pCS2+)
Assay: fluorescence cross-correlation spectroscopy (FCCS); plasma membrane of live PAC2 cells expressing GFP-Vangl2 and Ror2-mCherry; untreated control (no Wnt protein added); laser spot scanned across the membrane for 16 s; diffusion with triplet fit

- KD without m3 or m4 (untreated control): > 1.1 µM
Substance: GFP-Vangl2 (meGFP-Vangl2 in pcDNA3.1) (from UniProt Q8UVJ6 1-526) (natural protein)

From PMC8024337
